For the experiment, the target named is MET on NCI-H596 cells (MET exon14 skip mutation) (human) (UniProt P08581). The experiment in a line: cell-based or functional assay.

“hepatocyte growth factor (HGF) (from UniProt P14210 32-728) (ligand)” came in with a Relative Cell Growth (n = 3), NCI-H596 in soft agar, 100 ng/mL, two weeks (relative to control (no treatment)) of 7.88.

These data come from patent publication US20240084041A1.
